Experimental findings from patent publication US20240392262A1, “TRANSPOSASE AND USES THEREOF” (Poseida Therapeutics, Inc., published 2024) are described below.

What all share (details): tags: 3xFlag, SV40 NLS
In one data set the target is T1, PAH4 Left TAL-PBx (synthetic construct).
T1 chain: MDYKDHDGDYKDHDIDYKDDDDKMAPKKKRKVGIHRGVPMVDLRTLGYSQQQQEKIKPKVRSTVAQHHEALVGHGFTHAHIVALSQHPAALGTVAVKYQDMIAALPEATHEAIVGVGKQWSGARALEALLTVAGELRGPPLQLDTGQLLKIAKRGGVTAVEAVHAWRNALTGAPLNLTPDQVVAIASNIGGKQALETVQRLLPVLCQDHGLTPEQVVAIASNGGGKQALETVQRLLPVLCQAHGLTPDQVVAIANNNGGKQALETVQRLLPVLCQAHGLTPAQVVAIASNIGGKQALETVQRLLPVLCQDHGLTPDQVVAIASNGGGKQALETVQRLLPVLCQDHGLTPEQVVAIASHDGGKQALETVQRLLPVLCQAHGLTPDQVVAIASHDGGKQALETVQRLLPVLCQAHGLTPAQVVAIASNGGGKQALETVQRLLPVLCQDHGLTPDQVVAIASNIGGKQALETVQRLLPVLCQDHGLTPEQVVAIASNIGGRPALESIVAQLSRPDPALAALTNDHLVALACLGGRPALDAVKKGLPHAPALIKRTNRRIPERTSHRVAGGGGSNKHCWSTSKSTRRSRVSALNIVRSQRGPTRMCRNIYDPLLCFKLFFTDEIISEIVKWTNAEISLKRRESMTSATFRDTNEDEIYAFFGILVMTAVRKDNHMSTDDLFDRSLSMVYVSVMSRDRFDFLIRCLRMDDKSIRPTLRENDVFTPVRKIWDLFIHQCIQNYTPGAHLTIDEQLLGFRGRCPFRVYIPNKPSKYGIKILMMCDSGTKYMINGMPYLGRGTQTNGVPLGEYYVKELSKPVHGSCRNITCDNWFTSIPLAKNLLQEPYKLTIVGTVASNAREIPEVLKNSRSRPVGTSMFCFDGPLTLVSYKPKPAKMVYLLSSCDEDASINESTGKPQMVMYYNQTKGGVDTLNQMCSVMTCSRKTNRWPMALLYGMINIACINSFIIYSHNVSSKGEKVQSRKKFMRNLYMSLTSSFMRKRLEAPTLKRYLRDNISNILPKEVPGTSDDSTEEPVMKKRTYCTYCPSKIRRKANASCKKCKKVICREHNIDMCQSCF
Put plainly: cell_activity; left only.

In another data set the target is T2, PAH4 Right TAL-PBx (synthetic construct).
T2 chain: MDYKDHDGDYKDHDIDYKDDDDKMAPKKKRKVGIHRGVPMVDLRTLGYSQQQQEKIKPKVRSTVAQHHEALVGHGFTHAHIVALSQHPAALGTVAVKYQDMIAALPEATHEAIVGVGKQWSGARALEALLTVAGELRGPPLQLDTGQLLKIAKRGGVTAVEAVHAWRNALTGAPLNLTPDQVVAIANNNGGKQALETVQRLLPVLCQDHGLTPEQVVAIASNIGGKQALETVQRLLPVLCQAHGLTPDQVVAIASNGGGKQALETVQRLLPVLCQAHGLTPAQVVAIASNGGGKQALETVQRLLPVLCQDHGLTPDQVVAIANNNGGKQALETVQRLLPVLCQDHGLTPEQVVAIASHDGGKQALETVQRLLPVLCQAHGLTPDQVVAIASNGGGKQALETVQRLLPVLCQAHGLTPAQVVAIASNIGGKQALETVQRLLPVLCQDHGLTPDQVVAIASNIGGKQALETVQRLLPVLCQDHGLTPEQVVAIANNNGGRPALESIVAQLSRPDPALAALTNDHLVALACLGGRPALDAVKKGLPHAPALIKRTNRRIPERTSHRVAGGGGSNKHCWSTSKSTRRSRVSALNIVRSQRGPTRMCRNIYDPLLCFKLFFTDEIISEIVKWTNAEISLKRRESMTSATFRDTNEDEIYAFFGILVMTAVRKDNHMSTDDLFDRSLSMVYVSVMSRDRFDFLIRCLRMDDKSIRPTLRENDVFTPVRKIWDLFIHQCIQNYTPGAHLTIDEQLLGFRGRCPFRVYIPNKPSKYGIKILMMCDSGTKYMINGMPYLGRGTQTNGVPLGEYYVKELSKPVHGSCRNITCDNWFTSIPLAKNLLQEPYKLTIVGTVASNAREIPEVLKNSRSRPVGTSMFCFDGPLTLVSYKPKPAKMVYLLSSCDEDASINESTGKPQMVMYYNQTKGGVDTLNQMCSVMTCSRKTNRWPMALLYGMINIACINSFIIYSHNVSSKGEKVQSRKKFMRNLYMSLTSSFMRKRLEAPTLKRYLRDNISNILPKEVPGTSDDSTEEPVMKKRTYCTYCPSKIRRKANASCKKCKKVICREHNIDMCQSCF
Nature of the data set: cell_activity; right only.

A further data set has as its target T3, PAH5 Left TAL-PBx (synthetic construct).
T3 chain: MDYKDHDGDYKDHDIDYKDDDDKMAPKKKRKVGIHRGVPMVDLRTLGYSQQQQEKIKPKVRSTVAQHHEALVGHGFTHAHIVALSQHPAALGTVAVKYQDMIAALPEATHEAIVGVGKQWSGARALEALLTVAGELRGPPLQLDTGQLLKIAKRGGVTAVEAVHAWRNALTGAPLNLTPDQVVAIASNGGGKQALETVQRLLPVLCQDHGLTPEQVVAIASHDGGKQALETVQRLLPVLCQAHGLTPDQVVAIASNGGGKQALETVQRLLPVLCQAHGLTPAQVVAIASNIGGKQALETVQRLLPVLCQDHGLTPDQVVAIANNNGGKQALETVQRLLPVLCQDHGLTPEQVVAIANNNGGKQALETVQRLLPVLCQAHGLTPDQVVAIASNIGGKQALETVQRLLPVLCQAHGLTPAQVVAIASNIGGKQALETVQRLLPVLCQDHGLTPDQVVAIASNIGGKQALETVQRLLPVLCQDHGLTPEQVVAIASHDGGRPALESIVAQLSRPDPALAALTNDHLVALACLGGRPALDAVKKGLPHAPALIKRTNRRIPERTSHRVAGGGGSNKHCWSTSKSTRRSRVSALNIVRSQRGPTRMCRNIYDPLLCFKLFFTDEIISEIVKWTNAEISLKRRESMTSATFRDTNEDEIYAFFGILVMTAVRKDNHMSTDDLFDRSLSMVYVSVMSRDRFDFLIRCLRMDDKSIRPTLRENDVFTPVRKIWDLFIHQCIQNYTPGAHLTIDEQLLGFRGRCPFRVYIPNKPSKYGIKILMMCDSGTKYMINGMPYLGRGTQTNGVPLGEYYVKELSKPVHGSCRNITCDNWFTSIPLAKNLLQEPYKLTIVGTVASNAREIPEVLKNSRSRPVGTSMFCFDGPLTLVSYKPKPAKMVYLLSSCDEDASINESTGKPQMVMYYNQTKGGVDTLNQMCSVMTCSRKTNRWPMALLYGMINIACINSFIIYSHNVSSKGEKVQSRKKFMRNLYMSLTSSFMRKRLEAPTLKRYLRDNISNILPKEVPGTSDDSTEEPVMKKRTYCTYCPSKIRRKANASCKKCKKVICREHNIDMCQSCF
Put plainly: cell_activity; left only.

In another data set the target is T4, PAH5 Right TAL-PBx (synthetic construct).
T4 chain: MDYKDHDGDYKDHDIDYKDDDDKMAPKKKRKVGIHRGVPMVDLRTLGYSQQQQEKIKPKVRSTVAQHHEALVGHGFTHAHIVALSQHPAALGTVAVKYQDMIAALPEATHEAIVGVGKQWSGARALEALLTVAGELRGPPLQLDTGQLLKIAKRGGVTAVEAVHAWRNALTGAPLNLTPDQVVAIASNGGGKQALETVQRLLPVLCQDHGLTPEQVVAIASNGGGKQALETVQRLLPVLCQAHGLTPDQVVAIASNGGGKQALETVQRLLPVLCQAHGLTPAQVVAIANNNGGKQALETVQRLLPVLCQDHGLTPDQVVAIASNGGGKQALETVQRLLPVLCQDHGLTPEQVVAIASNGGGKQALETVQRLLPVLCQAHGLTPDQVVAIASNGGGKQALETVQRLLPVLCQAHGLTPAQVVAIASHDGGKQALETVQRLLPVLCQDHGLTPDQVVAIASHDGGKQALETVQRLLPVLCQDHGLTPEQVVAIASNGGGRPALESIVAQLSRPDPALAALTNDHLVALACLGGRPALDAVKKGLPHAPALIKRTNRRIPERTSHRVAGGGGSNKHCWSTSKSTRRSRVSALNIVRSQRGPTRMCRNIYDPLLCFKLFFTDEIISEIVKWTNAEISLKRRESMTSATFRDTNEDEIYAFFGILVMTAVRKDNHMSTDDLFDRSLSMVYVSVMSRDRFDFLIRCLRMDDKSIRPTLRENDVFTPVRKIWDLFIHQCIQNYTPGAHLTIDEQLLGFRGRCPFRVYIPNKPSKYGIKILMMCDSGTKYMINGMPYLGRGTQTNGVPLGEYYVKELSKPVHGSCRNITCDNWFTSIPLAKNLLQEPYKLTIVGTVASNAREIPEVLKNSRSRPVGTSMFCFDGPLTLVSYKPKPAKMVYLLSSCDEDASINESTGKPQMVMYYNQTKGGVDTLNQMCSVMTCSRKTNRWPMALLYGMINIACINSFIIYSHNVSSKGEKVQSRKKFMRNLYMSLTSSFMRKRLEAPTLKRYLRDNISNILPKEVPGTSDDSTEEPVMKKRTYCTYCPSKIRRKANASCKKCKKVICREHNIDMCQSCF
Nature of the data set: cell_activity; right only.

B1: PAH4 target (dsDNA)
DNA 1: TATGATCCTAATCAGGCTTGTAAATTAACTTTTGAGGCTCTCTTAGCAATCA
DNA 2: TGATTGCTAAGAGAGCCTCAAAAGTTAATTTACAAGCCTGATTAGGATCATA
On to B1, for which the activity turned out to be 3.6 % GFP+ with PAH4 Left TAL-PBx and 2.9 % GFP+ with PAH4 Right TAL-PBx.

B2: PAH5 target (dsDNA)
DNA 1: TTCTAGGAAACTTGAACTATGATTTTAAAAAAAGAGAAAGAAGGAAACAAAA
DNA 2: TTTTGTTTCCTTCTTTCTCTTTTTTTAAAATCATAGTTCAAGTTTCCTAGAA
On to B2, for which the figures for the activity with PAH5 Left TAL-PBx and in the data set with PAH5 Right TAL-PBx were 3.6 % GFP+ and 3.9 % GFP+, respectively.
